Results published in the supplement of paper PMC10126150.
± gives the standard deviation of the averaged measurements.

Test system: ATP
Assay: switch fluorescence ratio, 500 uM ATP over buffer (Cy3 cluster intensity, sum of 5 cycles each) (fold (ratio)); higher = stronger signal-on switching upon ATP binding; sequences stand for … in TCGTCGGCAGCGTCAGATGTGTATAAGAGACAGTTTTTTTTTTTTTTTTTTTTTTTTT…TC
Conditions: aptamer strand: ATP DNA aptamer (quencher-CACCTGGGGGAGTATTGCGGAGGAAGG + anchor), 100 nM annealed; ATP concentration: 500 uM
Summary of the method: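 Cy3-labelled switching-strand clusters on a modified Illumina MiSeq flow-cell were annealed to 100 nM quencher-labelled ATP aptamer and imaged first in selection buffer, then after 15 min with 500 uM ATP at 22 °C. NaOH stripping and re-annealing separated each of five buffer/ATP cycles, and clusters outside 100-1000 RFU were excluded. The fluorescence ratio sums target-cycle Cy3 intensity over buffer-cycle Cy3 intensity per cluster and averages it per switch-domain sequence.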
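Also: ATP exposure 15 min at 22 °C before imaging.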

Sequence | switch fluorescence ratio
AACTCTAGCA | 1.073 ± 0.0052
CGGTTGTGTA | 1.03 ± 0.023
ATACGGTTTT | 0.996 ± 0.026
TTCTGGAACT | 1.03 ± 0.015
TTTTGAGGTC | 0.986 ± 0.064
TGATAAGAGT | 1.01 ± 0.011
AGTCATAAAA | 1.01 ± 0.045
AGAGTAGTTG | 0.9708 ± 0.0076
TTTGAATGAT | 0.984 ± 0.015
CTGGTAGACT | 0.992 ± 0.023
GGGGTGAGCT | 0.981 ± 0.03
AATAAAAGGG | 1 ± 0.03
ATGTAATAGC | 0.989 ± 0.022
ATTGTTACGG | 0.998 ± 0.024
GCATGTCGGA | 1.01 ± 0.039
ATGAGACCCT | 1.07 ± 0.036
AGTTTTGCGT | 1.01 ± 0.034
TTTATTTGCA | 0.9545 ± 0.0068
CAACATGATG | 0.995 ± 0.013
AGTTGGGGAC | 1.012 ± 0.0071
GTGGTGGGGT | 1.01 ± 0.028
TAGGGGGCTC | 0.959 ± 0.02
TCTAAATAGG | 0.9908 ± 0.0032
ATGCGCCGGT | 1.011 ± 0.0027
TTCTTTTAAT | 0.98998 ± 0.0005

Sequence | switch fluorescence ratio
TAGCGGGCTT | 0.983 ± 0.025
CGCCCCGAGA | 1.02 ± 0.015
TGTTGTAATG | 0.9974 ± 0.0033
GAGAGGGCCT | 0.985 ± 0.038
ATGTGAGTTA | 0.951 ± 0.039
ACCAGTGCTG | 1 ± 0.04
AGCGGTCTAT | 1.021 ± 0.005
TGAATGACGT | 0.972 ± 0.04
ACTGGGCCTT | 1.031 ± 0.0083
TTGTGTGGTT | 0.963 ± 0.038
AACGGTCACA | 1.16 ± 0.021
TCGTTTTGCT | 0.981 ± 0.017
ACGGGACAGC | 1.2 ± 0.064
TCTTGTAACT | 1.01 ± 0.017
TGGATATTTA | 0.978 ± 0.012
TGTTTAAAAT | 1.02 ± 0.046
ATGTTATAGT | 0.98 ± 0.04
TGGGGGTAAT | 0.992 ± 0.029
TAGGATGTGT | 1 ± 0.0056
GATAGTGAGA | 1.03 ± 0.011
GTTAGTCAAA | 0.991 ± 0.01
GTGGGTCGTA | 0.985 ± 0.046
GGGCAATTAG | 1.15 ± 0.014
GCGGTCCGTT | 0.9614 ± 0.0012
AGAGGAGGGG | 1.01 ± 0.042

Sequence | switch fluorescence ratio
GAAGCTAGTA | 1.02 ± 0.024
ATTGGATCGA | 1.01 ± 0.054
GGTATAATGG | 0.971 ± 0.03
CTGGTTTTAT | 0.9823 ± 0.009
CCGGGGGCTC | 1.87 ± 0.97
ATATTGCTCG | 1.05 ± 0.06
TTTGTTTTCG | 1.02 ± 0.041
GGGCAACGAC | 1.07 ± 0.0093
GTTATTATAG | 0.992 ± 0.005
AGAATATGGG | 0.994 ± 0.011
TTTGAAAGTG | 0.999 ± 0.015
TAGAGGATCA | 1 ± 0.056
GGAACCTTGG | 1.023 ± 0.0094
CCCTTGTGTG | 1.43 ± 0.051
TTCGCTGTAT | 1.01 ± 0.011
AGGTAAGCTA | 1.025 ± 0.005
TTCCTTTTAA | 1.04 ± 0.055
TGCGGGTCGG | 1.03 ± 0.031
AGCGGATGTG | 0.978 ± 0.027
CCTGTGGTGC | 1.342 ± 0.0072
TATGTACGGG | 1.0612 ± 0.00037
CGGTCGGTTG | 1.06 ± 0.022
TAAATGTGGA | 0.972 ± 0.03
GGGCACGTTT | 0.995 ± 0.011
ATAAGTATGA | 1.01 ± 0.034

Sequence | switch fluorescence ratio
ATGGTCAGGT | 1.01 ± 0.019
CTGCTTTGTC | 0.941 ± 0.0058
TTTGTTTACT | 0.99165 ± 0.00046
ATACTTAGGT | 1.07 ± 0.1
TTGGTGCAGC | 1.025 ± 0.0075
GGGTAAGATC | 1.022 ± 0.0083
TCGGATTAAT | 1.05 ± 0.043
AGATGATCAG | 0.982 ± 0.02
GGTTGGGCTC | 1.001 ± 0.0099
AGACACGTTA | 1.28 ± 0.017
AGGATTCGGG | 1.01 ± 0.021
GGTCTGCGCG | 1.02 ± 0.037
GAACGGAGGC | 0.978 ± 0.016
GCGAGACTGT | 1.07 ± 0.04
ACGGTTTTCA | 0.977 ± 0.011
AGCTAATCGT | 1.01 ± 0.014
AGATAGGG | 0.96188 ± 0.00038
AACATTATTT | 1.022 ± 0.0014
CGGTATGGCT | 0.9689 ± 0.0062
GCTGTTCAAG | 1 ± 0.026
TCCGGTAGTT | 1.06 ± 0.013
ATGGTTGTCA | 1.03 ± 0.015
TGGGGGTGTA | 1.05 ± 0.039
GGGAATTGGT | 0.979 ± 0.02
AATTTTTAAA | 0.968 ± 0.038

Sequence | switch fluorescence ratio
GGGACGGGC | 0.933 ± 0.078
TCGGCGGTGG | 0.963 ± 0.05
GGTGTGTGTT | 0.9951 ± 0.0078
ATTTGATATG | 0.965 ± 0.031
TTTTAAACCG | 1.05 ± 0.17
TTTTGGTCTC | 0.985 ± 0.036
TGAAGGTCGG | 0.9917 ± 0.0039
GCGTGGGAGG | 1.018 ± 0.0053
AGAATTCCGT | 0.992 ± 0.01
CCAGGGTTGT | 1.11 ± 0.037
AGGTTTTCAG | 0.983 ± 0.045
GCGAAAAGGA | 1.02 ± 0.011
TTGTGTTTTG | 1.16 ± 0.39
CGACTATAGG | 1 ± 0.023
ATCAGTGGTA | 0.987 ± 0.028
CAACCAGTGT | 1.31 ± 0.026
TATACGGGAT | 1.06 ± 0.043
TCGTTGCAGT | 1.02 ± 0.018
GAATGAGCGT | 0.9799 ± 0.003
ATGGGGTGGC | 0.9977 ± 0.0017
GCTGATATAA | 1.01 ± 0.019
TTTTAAGTGA | 1.02 ± 0.05
TTGGTAAGAC | 1.14 ± 0.12
GGGTGAGGCA | 0.9988 ± 0.0086
TATTGTTCTG | 0.9819 ± 0.0025

Sequence | switch fluorescence ratio
CGGGCTAAGA | 1.02 ± 0.041
ACAGGCAGGA | 1.01 ± 0.022
ATGGTGGTGG | 1.011 ± 0.0062
CTATGATCTG | 0.989 ± 0.065
TACTTGGGAG | 1.027 ± 0.0036
GCTCAAGCTA | 1.15 ± 0.021
GGTATAAGGG | 0.997 ± 0.02
ATGCTTCTTT | 0.9854 ± 0.0053
AAAGTTTCCG | 1 ± 0.0018
CCGAACTGGT | 1.1 ± 0.05
GTGTTAATGG | 0.998 ± 0.022
GTTTATAGGG | 0.985 ± 0.025
GAAGTTGGGA | 0.9857 ± 0.0095
TTTTTTGCAG | 0.987 ± 0.029
AGCGTTGATG | 1.01 ± 0.03
GGTCTAGAAA | 1.21 ± 0.3
TAGGGGTTCT | 1.01 ± 0.061
TTTTCTTTTG | 1 ± 0.024
TGGGTAATCC | 1.03 ± 0.025
TCTATCAGGG | 0.995 ± 0.011
TTAGGGGGG | 1.01 ± 0.026
TTATGAAATG | 1 ± 0.025
GATGAGGGCG | 1.14 ± 0.23
TGGGTGTCGC | 0.9672 ± 0.0039
AAAAGAGGTT | 0.9996 ± 0.0072

Sequence | switch fluorescence ratio
AAAGATTTCG | 0.971 ± 0.027
AATACAGGCT | 0.999 ± 0.024
ACTAGAGCGA | 1.11 ± 0.11
ACACGCCCAA | 1.12 ± 0.069
ATAAGGCATG | 0.975 ± 0.021
TCCAATCTCT | 1.06 ± 0.02
ACACGGGGCT | 1.01 ± 0.051
TTAATTTTCC | 1.46 ± 0.49
TCAATATTGG | 1.008 ± 0.0098
ACTCGAGGAT | 1.03 ± 0.013
TAAGGGGGCG | 1 ± 0.023
ATCGATATTG | 0.991 ± 0.029
GCGACGGGAG | 1.01 ± 0.013
GATGCAGTTT | 1.03 ± 0.019
TGGTTCCAAA | 0.971 ± 0.008
TTTTACTATT | 0.996 ± 0.041
TGTTACGGGG | 0.98654 ± 0.00045
CTGGTTTTCG | 1 ± 0.021
GAGGATTTCA | 0.99698 ± 0.00049
AAAAGCGCGG | 1.13 ± 0.074
GCGGGCCTGG | 1.01 ± 0.037
GCAGGAAAAC | 1.04 ± 0.018
GATGCTGGGT | 1.01 ± 0.014
GTCGGGAGGT | 0.989 ± 0.015
ATTCGAATCG | 1.05 ± 0.12

Sequence | switch fluorescence ratio
CGGTTGCCCG | 0.979 ± 0.12
TCCGAGCCTT | 2.08 ± 0.12
GGTCGCTTTT | 0.9949 ± 0.0043
GACCCGTCAG | 1.01 ± 0.013
GGAATGAGTA | 0.997 ± 0.016
GGGGGGACCT | 1.06 ± 0.043
GATTGAATCC | 1.01 ± 0.059
TTGACGGTGT | 1.028 ± 0.0021
GCGTTATCTT | 0.99586 ± 0.00081
GATAGATGGC | 0.989 ± 0.039
TAGAAAGTGC | 1.02 ± 0.099
TCTGGATTCA | 0.986 ± 0.027
GCGGGGGGAG | 1.02 ± 0.043
AAATTATAGG | 1.01 ± 0.032
TATTTGAAA | 1.05 ± 0.059
TTATTCTTTT | 1 ± 0.026
TTCGGCTCGA | 1.05 ± 0.034
GCCGAGCTCT | 0.996 ± 0.024
ATTGAGTAGC | 1.01 ± 0.032
GGGAGAAATT | 1.02 ± 0.061
GGGAAAGCGT | 1.03 ± 0.035
TGGTGGTTGC | 0.96 ± 0.051
GGGGTAGCTG | 0.962 ± 0.012
CAATATGATA | 1.003 ± 0.0011
GAGAGCCGTC | 1.08 ± 0.13
